Measured values as given in paper PMC11178655, “Dosimetry and pharmacokinetics of [^177Lu]Lu-satoreotide tetraxetan in patients with progressive neuroendocrine tumours” (European Journal of Nuclear Medicine and Molecular Imaging, 2024).
Values joined by “and” are separate entries in the source; they are usually repeats but may differ in a detail not shown here. Equal values may be shown once. Where a SMILES comes first, the peptide text is derived from it. Bridges are numbered along the chain shown (N, C = ends). [ ]: non-standard residue; d: D form. The star is where a group is joined. DOTA = O=C(O)CN1CCN(CC(=O)O)CCN(CC(=O)*)CCN(CC(=O)O)CC1; dPhe(4-NHCONH2) = NC(=O)Nc1ccc(C[C@@H](N)C(=O)O)cc1; Dihydroorotyl(S) = O=C1C[C@@H](C(=O)*)NC(=O)N1; Phe(4-Cl) = N[C@@H](Cc1ccc(Cl)cc1)C(=O)O; Phe(4-NH2) = Nc1ccc(C[C@H](N)C(=O)O)cc1

System: patients with progressive, SSTR-positive NETs
Assay: Patient-specific image-based dosimetry (NUKDOS) of tumours and organs, phase I/II trial
Format: in vivo, human
Method: In both parts A and B of the study, patients underwent planar whole-body imaging at 4 h and 1, 2, 3, and 6 days after each [^177Lu]Lu-satoreotide tetraxetan treatment cycle. Patients in part A also underwent single-photon emission computed tomography/computed tomography (SPECT/CT) at 24 h after each [^177Lu]Lu-satoreotide tetraxetan cycle. Those in part B underwent SPECT/CT, immediately before or after planar scintigraphy, at 4 h, and 1, 2, 3, and 6 days after each [^177Lu]Lu-satoreotide tetraxetan administration. Full details of the image acquisition methodology are provided in the Supplementary Information.
Delineation of tumour volumes was performed on anatomical SPECT/CT images after each [^177Lu]Lu-satoreotide tetraxetan administration. Tumours with a longest diameter < 2 cm were not analysed due to the difficulty in correcting for partial volume effects caused by the limited spatial resolution of the SPECT/CT systems. For study inclusion in part A, one tumour lesion ≥ 2 cm must have been present for eligibility; in part B, two or more tumour lesions ≥ 2 cm must have been present, each with an uptake on SSTR imaging higher than that of normal liver parenchyma (target lesion on [^68Ga]Ga-DOTA-TATE or -DOTA-TOC positron emission tomography: maximum standardised uptake value [SUVmax] ≥ 2x the mean SUV [SUVmean] of liver background; or ^111In-scintigraphy/SPECT: Krenning score 3 or 4 [uptake > normal liver, or uptake > spleen or kidneys, respectively [26]]).
Reconstruction parameters were set up to produce isotropic voxels of < 5 mm; voxels were continuous throughout the field of view. Anatomic coverage of the acquisition was determined according to the patients’ tumour locations on the planar whole-body scan acquisition with liver, both kidneys and spleen in the same bed position. For organs showing [^177Lu]Lu-satoreotide tetraxetan uptake, regions of interest (ROIs)/volumes of interest (VOIs) were drawn manually over the whole organs of interest (whole body, left and right kidneys, liver, spleen, and bone marrow), using the NUKDOS software for planar whole-body scans and the SPECT/CT acquired in part A [27]. VOIs for the same organs were drawn for all SPECT/CT images acquired in part B. All ROIs/VOIs were then used for activity quantification. Time-integrated activity coefficients (TIACs) for a given source volume were computed by integrating the time-activity curves. Full details of the tumour delineation and activity quantification methodology are provided in the Supplementary Information.
Patient-specific dosimetry calculations were performed after each treatment cycle in both parts A and B, using the absorbed dose calculation features of the NUKDOS software for image-based dosimetry calculations. The NUKDOS software was chosen as it allowed for an integral approach to organ dosimetry (including image quantification, time-activity curve-fitting and dosimetry calculation). For the bone marrow, both image-based and blood-based calculations were performed in part A [28, 29]. In part B, only image-based bone marrow dosimetry was performed. Organ Level INternal Dose Assessment/EXponential Modelling (OLINDA/EXM) version 1.0 software, the most widely used version at the time of the study, was used to perform model-based dosimetry calculations, which were only performed after the first [^177Lu]Lu-satoreotide tetraxetan cycle for patients in part B. To generate organ-specific absorbed doses, TIACs were used as input data. Full details on OLINDA/EXM software settings and organ-specific TIAC calculation methods are provided in the Supplementary Information.
All images were acquired with a 20% energy window around the main photopeak of ^177Lu (208 keV). For scatter correction, the triple-energy window method was applied based on the recommendation of the Committee on Medical Internal Radiation Dose. Whole-body images were acquired with a scanning time of 20 cm/min in a 256 × 1,024 matrix. […]

[1] = Part B Cohort 3 (4.5 GBq, 300 µg; 700 µg at cycle 2), median (range), n = 8
[2] = Part B Cohort 3 (4.5 GBq/cycle), image-based dosimetry, median (range), n = 6
[3] = Part B Cohort 3 (4.5 GBq/cycle), median (range), n = 8
[4] = Part B Cohort 3 (4.5 GBq/cycle), median (range), n = 9
[5] = Part B Cohort 3, median (range), n = 8
[6] = Part B Cohort 6 (4.5 GBq/cycle), median (range), n = 6
[7] = Part B Cohort 6 (4.5 GBq/cycle), median (range), n = 7
[8] = Part B Cohort 6 (4.5 GBq/cycle), median (range), n/n-les 4/9

C[C@@H](O)[C@@H]1NC(=O)[C@H](CCCCN)NC(=O)[C@@H](Cc2ccc(NC(N)=O)cc2)NC(=O)[C@H](Cc2ccc(NC(=O)[C@@H]3CC(=O)NC(=O)N3)cc2)NC(=O)[C@H](NC(=O)[C@H](Cc2ccc(Cl)cc2)NC(=O)CN2CCN(CC(=O)O)CCN(CC(=O)O)CCN(CC(=O)O)CC2)CSSC[C@@H](C(=O)N[C@H](Cc2ccc(O)cc2)C(N)=O)NC1=O [[^177Lu]Lu-satoreotide tetraxetan, metal not drawn] ({DOTA}-[Phe(4-Cl)][dC][Phe(4-NH2)](Dihydroorotyl(S))[dPhe(4-NHCONH2)]KTC[dY]-NH2; disulfide 2-7 (inferred); C-terminus assumed)
Cycle 3 ADC, Kidneys [1]: 0.8 (0.4–1.2) Gy/GBq
Cycle 3 ADC, Tumours [1]: 5.5 (2.6–16.8) Gy/GBq
Ratio of ADCs Cycle 2/Cycle 1 (700 vs. 300 µg), Bone marrow [2]: 95.0 (36.4–143) %
Ratio of ADCs Cycle 2/Cycle 3 (700 vs. 300 µg), Bone marrow [2]: 95.0 (60.0–125) %
Ratio of ADCs Cycle 2/Cycle 3 (700 vs. 300 µg), Spleen (Part B Cohort 3 (4.5 GBq/cycle), median (range), n = 5): 79.3 (61.2–90.8) %
Ratio of ADCs Cycle 2/Cycle 1 (700 vs. 300 µg), Spleen (Part B Cohort 3 (4.5 GBq/cycle), median (range), n = 6): 61.9 (45.9–108) %
Ratio of ADCs Cycle 2/Cycle 3 (700 vs. 300 µg), Body [3]: 101 (78.7–132) %
Ratio of ADCs Cycle 2/Cycle 3 (700 vs. 300 µg), Kidney [3]: 82.0 (64.8–110) %
Ratio of ADCs Cycle 2/Cycle 1 (700 vs. 300 µg), Body [4]: 83.3 (52.8–100) %
Ratio of ADCs Cycle 2/Cycle 1 (700 vs. 300 µg), Kidney [4]: 80.8 (61.0–113) %
Ratio of ADCs Cycle 2/Cycle 3 (700 vs. 300 µg), Liver lesions (Part B Cohort 3 (4.5 GBq/cycle), median (range), n/n-les 6/9): 68.9 (57.3–121) %
Ratio of ADCs Cycle 2/Cycle 1 (700 vs. 300 µg), Liver lesions (Part B Cohort 3 (4.5 GBq/cycle), median (range), n/n-les 7/10): 70.4 (52.4–95.7) %
Ratio of ADCs Cycle 2/Cycle 3 (700 vs. 300 µg), All lesions (Part B Cohort 3 (4.5 GBq/cycle), median (range), n/n-les 8/15): 77.6 (52.4–121) %
Ratio of ADCs Cycle 2/Cycle 1 (700 vs. 300 µg), All lesions (Part B Cohort 3 (4.5 GBq/cycle), median (range), n/n-les 9/17): 62.5 (27.6–95.7) %
Ratio of Cycle 3/ Cycle 1 ADCs, Bone marrow (Part B Cohort 3, image-based dosimetry, median (range), n = 6): 106 (36.4–138) %
Ratio of Cycle 3/ Cycle 1 ADCs, Spleen (Part B Cohort 3, median (range), n = 5): 87.8 (76.0–152) %
Ratio of Cycle 3/ Cycle 1 ADCs, Kidneys [5]: 94.1 (78.9–146) %
Ratio of Cycle 3/ Cycle 1 ADCs, Tumours [5]: 80.5 (44.1–152) %
Cycle 1 ADC, Bone marrow (Part B Cohort 6 (4.5 GBq, 300 µg), image-based dosimetry, median (range), n = 6): 0.1 (0.0–0.2) Gy/GBq
Cycle 1 ADC, Spleen (Part B Cohort 6 (4.5 GBq, 300 µg), median (range), n = 6): 0.8 (0.4–1.0) Gy/GBq
Cycle 1 ADC, Tumours (Part B Cohort 6 (4.5 GBq, 300 µg), median (range), n = 8): 13.5 (2.2–81.0) Gy/GBq
Cycle 1 ADC, Kidneys (Part B Cohort 6 (4.5 GBq, 300 µg), median (range), n = 9): 0.8 (0.4–1.1) Gy/GBq
Cycle 3 ADC, Bone marrow (Part B Cohort 6 (4.5 GBq, 300 µg; 1,300 µg at cycle 2), image-based dosimetry, median (range), n = 3): 0.1 (0.0–0.1) Gy/GBq
Cycle 3 ADC, Spleen (Part B Cohort 6 (4.5 GBq, 300 µg; 1,300 µg at cycle 2), median (range), n = 4): 0.8 (0.7–1.5) Gy/GBq
Cycle 3 ADC, Tumours (Part B Cohort 6 (4.5 GBq, 300 µg; 1,300 µg at cycle 2), median (range), n = 5): 7.7 (3.2–70.3) Gy/GBq
Cycle 3 ADC, Kidneys (Part B Cohort 6 (4.5 GBq, 300 µg; 1,300 µg at cycle 2), median (range), n = 6): 0.8 (0.7–1.2) Gy/GBq
Ratio of ADCs Cycle 2/Cycle 3 (1300 vs. 300 µg), Bone marrow (Part B Cohort 6 (4.5 GBq/cycle), image-based dosimetry, median (range), n = 3): 114 (50.0–120) %
Ratio of ADCs Cycle 2/Cycle 1 (1300 vs. 300 µg), Bone marrow (Part B Cohort 6 (4.5 GBq/cycle), image-based dosimetry, median (range), n = 4): 200 (80.0–240) %
Ratio of ADCs Cycle 2/Cycle 3 (1300 vs. 300 µg), Spleen (Part B Cohort 6 (4.5 GBq/cycle), median (range), n = 4): 49.7 (49.3–52.6) %
Ratio of ADCs Cycle 2/Cycle 1 (1300 vs. 300 µg), Spleen (Part B Cohort 6 (4.5 GBq/cycle), median (range), n = 5): 48.0 (44.3–94.4) %
Ratio of ADCs Cycle 2/Cycle 3 (1300 vs. 300 µg), Body [6]: 87.6 (72.7–102) %
Ratio of ADCs Cycle 2/Cycle 3 (1300 vs. 300 µg), Kidney [6]: 72.4 (52.8–96.3) %
Ratio of ADCs Cycle 2/Cycle 1 (1300 vs. 300 µg), Body [7]: 82.3 (48.3–97.6) %
Ratio of ADCs Cycle 2/Cycle 1 (1300 vs. 300 µg), Kidney [7]: 92.5 (65.9–121) %
Ratio of ADCs Cycle 2/Cycle 1 (1300 vs. 300 µg), Liver lesions [8]: 48.4 (24.7–76.5) %
Ratio of ADCs Cycle 2/Cycle 3 (1300 vs. 300 µg), Liver lesions [8]: 67.9 (40.6–104) %
Ratio of ADCs Cycle 2/Cycle 3 (1300 vs. 300 µg), All lesions (Part B Cohort 6 (4.5 GBq/cycle), median (range), n/n-les 5/11): 67.9 (40.6–104) %
Ratio of ADCs Cycle 2/Cycle 1 (1300 vs. 300 µg), All lesions (Part B Cohort 6 (4.5 GBq/cycle), median (range), n/n-les 6/13): 44.4 (24.7–76.5) %
Ratio of Cycle 3/ Cycle 1 ADCs, Bone marrow (Part B Cohort 6, image-based dosimetry, median (range), n = 3): 200 (175–400) %
Ratio of Cycle 3/ Cycle 1 ADCs, Spleen (Part B Cohort 6, median (range), n = 3): 185 (84.2–192) %
Ratio of Cycle 3/ Cycle 1 ADCs, Tumours (Part B Cohort 6, median (range), n = 4): 79.0 (28.6–114) %
Ratio of Cycle 3/ Cycle 1 ADCs, Kidneys (Part B Cohort 6, median (range), n = 5): 143 (88.8–198) %
Cumulative bone marrow absorbed dose, single patient (cohort 1 patient, one cycle at 5.9 GBq, developed grade 3 thrombocytopenia): 3.6 Gy
Overall specific absorbed dose coefficient in all lesions, initial diagnosis Pheochromocytoma + paraganglioma (first treatment cycle, median, N = 4): 2.1 Gy/GBq
Overall specific absorbed dose coefficient in all lesions, initial diagnosis Lung NET (first treatment cycle, median, N = 6): 5.1 Gy/GBq
Overall specific absorbed dose coefficient in all lesions, initial diagnosis GEP-NET (first treatment cycle, median, N = 23): 5.8 Gy/GBq
Patients with ADC ratio > 150% between cycle 3 and cycle 1, bone marrow (human, in vivo): 23.8 % of patients
Patients with ADC ratio > 150% between cycle 3 and cycle 1, kidneys (human, in vivo): 8.3 % of patients
Patients with ADC ratio > 150% between cycle 3 and cycle 1, liver (human, in vivo): no patients
Patients with ADC ratio > 150% between cycle 3 and cycle 1, spleen (human, in vivo): 22.2 % of patients
Mean cumulative absorbed dose in the left and right kidneys, single patient (part A patient, three cycles each at 4.5 GBq, eGFR below normal at baseline, no further deterioration of renal function): 24.1 Gy
Cumulative bone marrow absorbed dose, single patient (part A patient, three treatment cycles at 4.5, 4.4 and 4.3 GBq, no acute haematological toxicity): 2.2 Gy
Cumulative absorbed dose, bone marrow, image-based method (part A, cycles 1–3, 11 evaluated patients, median): 1.1 Gy
Cycle 1 ADC, Tumours (part B (all cohorts), median [range]): 7.9 [1.9–83.3] Gy/GBq
Cumulative bone marrow absorbed dose, single patient (part B cohort 1 patient, two treatment cycles at 4.7 GBq, no acute haematological toxicity): 1.9 Gy
Cumulative absorbed dose, kidneys (both left and right) (parts A and B, after cycles 1–3, median, pre-specified limit 23.0 Gy): 10.8 Gy
Cumulative absorbed dose, bone marrow, image-based (parts A and B, patients who completed three cycles (n = 21), median, pre-specified limit 1.5 Gy): 1.1 Gy
Cycle 1 ADC of tumours with ADC ratio cycle 3/cycle 1 > 150% (range): 0.6–4.1 Gy/GBq
Observations of ADC ratio between cycle 3 and cycle 1 in tumours > 150% (share of observations): 6.5%
Cumulative bone marrow absorbed dose, single patients (two additional patients after treatment cycle 4, individual values): 1.5 Gy and 1.8 Gy
